Measured values reported in patent US7261890.

What was measured:
[1] = molecular target: recombinant canine IgE (canine); experiment: IgE binding ELISA of COS supernatant; second number is the relative expression level
[2] = molecular target: recombinant canine IgE (canine); experiment: OD of IgE binding ELISA divided by IgG expression relative to chimeric 15A2, COS supernatant
[3] = molecular target: recombinant canine IgE (canine); experiment: IgE binding ELISA, COS supernatant on plate-coated recombinant canine IgE, anti-dog Fc-HRP
[4] = molecular target: recombinant canine IgE (canine); experiment: IgE binding ELISA of COS supernatant; in this cell the order is reversed (2.4 is the relative expression of Table 5, 0 the OD)

OD of IgE Binding (printed over relative expression level) [1]	Ratio IgE Binding/Expression [2]	OD at 650 nm (IgE Binding) [3]	OD of IgE Binding (printed over relative expression level) [4]	Binder
1.3 OD 650 nm	13	1.3 OD 650 nm		H74-1 caninized heavy chain with 15A2 chimeric light chain Lx (antibody, part only; not given: constant regions, V domains shown, part only) VH: EVQLVQSAAEVKKPGASVKVSCKTSGYSFTDYFMNWVQQAPGAGLDWMGRINPFNGDPFYNQKFKGRVTLTADTSTSTAYMELSSLRAEDAAVYYCARFYYGRYYAMDYWGQGTLVTV
			0 OD 650 nm	H74-1 / Group 2-1 (CDR-grafted caninized 15A2, heavy and light) (antibody, part only; not given: constant regions, V domains shown, part only) VH: EVQLVQSAAEVKKPGASVKVSCKTSGYSFTDYFMNWVQQAPGAGLDWMGRINPFNGDPFYNQKFKGRVTLTADTSTSTAYMELSSLRAEDAAVYYCARFYYGRYYAMDYWGQGTLVTV
